In article PMC2756588:

Columns and labels:
Test in all cases: SPOT array
Bzz1-2, P38822 = biological target: T1, Bzz1-2, P38822; details: median of control spots 4538
T1 sequence (P38822 568-633, looked up): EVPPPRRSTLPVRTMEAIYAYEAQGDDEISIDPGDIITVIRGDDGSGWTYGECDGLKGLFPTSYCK

Pin3, Q06449 = biological target: T2, Pin3, Q06449; details: median of control spots 2171
T2 sequence (Q06449 53-122, looked up): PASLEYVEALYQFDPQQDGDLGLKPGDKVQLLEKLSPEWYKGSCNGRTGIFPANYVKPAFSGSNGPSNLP

Sla1-3, P32790 = biological target: T3, Sla1-3, P32790; details: median of control spots 5475
T3 sequence (P32790 344-424, looked up): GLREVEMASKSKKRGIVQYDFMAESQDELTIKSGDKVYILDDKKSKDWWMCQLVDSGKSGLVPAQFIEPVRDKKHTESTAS

GST = details: median of control spots 978
Bud14, P27637 = biological target: T4, Bud14, P27637; details: median of control spots 956
T4 sequence (P27637 247-328, looked up): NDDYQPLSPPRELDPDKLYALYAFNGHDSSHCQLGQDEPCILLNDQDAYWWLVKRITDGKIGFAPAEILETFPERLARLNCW

Cyk3, Q07533 = biological target: T5, Cyk3, Q07533; details: median of control spots 1451
T5 sequence (Q07533 1-83, looked up): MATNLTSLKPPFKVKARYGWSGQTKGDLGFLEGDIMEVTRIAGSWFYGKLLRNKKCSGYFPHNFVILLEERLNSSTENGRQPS

Lsb4, P32793 = biological target: T6, Lsb4, P32793; details: median of control spots 397
T6 sequence (P32793 402-468, looked up): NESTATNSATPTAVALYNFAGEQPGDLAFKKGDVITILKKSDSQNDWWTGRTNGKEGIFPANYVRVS

Myo5, Q04439 = biological target: T7, Myo5, Q04439; details: median of control spots 471
T7 sequence (Q04439 1072-1160, looked up): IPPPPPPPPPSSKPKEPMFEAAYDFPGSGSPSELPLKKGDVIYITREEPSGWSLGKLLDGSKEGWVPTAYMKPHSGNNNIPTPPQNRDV

Sla1-2, P32790 = biological target: T8, Sla1-2, P32790; details: median of control spots 712
T8 sequence (P32790 60-140, looked up): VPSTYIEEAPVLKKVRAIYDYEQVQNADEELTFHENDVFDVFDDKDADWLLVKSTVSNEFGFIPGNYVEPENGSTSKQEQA

Bem1-1, P29366 = details: median of control spots 4282
Myo3, P36006 = details: median of control spots 468
Bbc1, P47068 = biological target: T9, Bbc1, P47068; details: median of control spots 796
T9 sequence (P47068 1-78, looked up): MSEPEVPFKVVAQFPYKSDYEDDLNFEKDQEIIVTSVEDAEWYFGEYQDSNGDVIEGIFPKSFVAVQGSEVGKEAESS

Sho1, P40073 = details: median of control spots 1148
Abp1, P15891 = biological target: T10, Abp1, P15891; details: median of control spots 935
T10 sequence (P15891 535-592, looked up): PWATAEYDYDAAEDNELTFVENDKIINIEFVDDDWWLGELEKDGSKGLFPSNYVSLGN

Hof1, Q05080 = biological target: T11, Hof1, Q05080; details: median of control spots 4086
T11 sequence (Q05080 590-669, looked up): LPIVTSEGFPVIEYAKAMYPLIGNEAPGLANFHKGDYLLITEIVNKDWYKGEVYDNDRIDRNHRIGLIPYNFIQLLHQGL

Bem1-2, P29366 = details: median of control spots 4347
Fus1, P11710 = biological target: T12, Fus1, P11710; details: median of control spots 1200
T12 sequence (P11710 432-512, looked up): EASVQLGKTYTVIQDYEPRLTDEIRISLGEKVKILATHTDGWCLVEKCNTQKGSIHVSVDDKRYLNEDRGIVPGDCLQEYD

Lsb3, P43603 = biological target: T13, Lsb3, P43603; details: median of control spots 406
T13 sequence (P43603 385-451, looked up): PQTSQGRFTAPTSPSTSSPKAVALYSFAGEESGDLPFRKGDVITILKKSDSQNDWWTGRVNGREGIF

Pex13, P80667 = biological target: T14, Pex13, P80667; details: median of control spots 1341
T14 sequence (P80667 295-386, looked up): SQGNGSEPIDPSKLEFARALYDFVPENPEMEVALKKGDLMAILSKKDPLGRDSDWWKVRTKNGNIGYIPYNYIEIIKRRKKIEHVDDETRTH

Boi1, P38041 = biological target: T15, Boi1, P38041; details: median of control spots 1162
T15 sequence (P38041 1-86, looked up): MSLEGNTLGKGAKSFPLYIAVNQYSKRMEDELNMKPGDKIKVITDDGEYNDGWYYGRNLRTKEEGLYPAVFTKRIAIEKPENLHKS

Rvs167, P39743 = details: median of control spots 2707
Bzz1-1, P38822 = biological target: T16, Bzz1-1, P38822; details: median of control spots 4446
T16 sequence (P38822 478-572, looked up): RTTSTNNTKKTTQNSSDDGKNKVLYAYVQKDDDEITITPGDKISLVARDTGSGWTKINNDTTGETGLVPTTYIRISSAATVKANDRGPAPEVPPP

Cdc25, P04821 = biological target: T17, Cdc25, P04821; details: median of control spots 969
T17 sequence (P04821 50-136, looked up): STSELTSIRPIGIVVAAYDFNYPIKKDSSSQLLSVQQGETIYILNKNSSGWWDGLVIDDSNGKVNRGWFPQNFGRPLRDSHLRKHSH

Lsb1, P53281 = biological target: T18, Lsb1, P53281; details: median of control spots 388
T18 sequence (P53281 45-122, looked up): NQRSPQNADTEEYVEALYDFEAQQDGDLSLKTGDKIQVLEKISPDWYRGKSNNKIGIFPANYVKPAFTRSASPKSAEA

Boi2, P39969 = biological target: T19, Boi2, P39969; details: median of control spots 1161
T19 sequence (P39969 32-116, looked up): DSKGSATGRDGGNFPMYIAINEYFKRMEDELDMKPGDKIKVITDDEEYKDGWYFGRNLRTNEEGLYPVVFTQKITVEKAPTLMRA

Nbp2, Q12163 = biological target: T20, Nbp2, Q12163; details: median of control spots 357
T20 sequence (Q12163 103-180, looked up): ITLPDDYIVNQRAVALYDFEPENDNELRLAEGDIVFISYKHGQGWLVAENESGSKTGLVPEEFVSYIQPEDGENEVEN

Hse1, P38753 = biological target: T21, Hse1, P38753; details: median of control spots 1727
T21 sequence (P38753 208-285, looked up): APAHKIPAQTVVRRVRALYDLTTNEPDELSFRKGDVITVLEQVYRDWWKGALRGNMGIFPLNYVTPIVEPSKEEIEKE

Chain of Bem1-1, P29366 (P29366 55-141): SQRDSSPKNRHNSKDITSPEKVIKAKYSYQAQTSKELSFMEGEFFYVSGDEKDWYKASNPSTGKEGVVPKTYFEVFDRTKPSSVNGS
Chain of Rvs167, P39743 (P39743 419-482): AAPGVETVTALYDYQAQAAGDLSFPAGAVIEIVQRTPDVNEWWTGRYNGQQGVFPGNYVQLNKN
Chain of Bem1-2, P29366 (P29366 139-227): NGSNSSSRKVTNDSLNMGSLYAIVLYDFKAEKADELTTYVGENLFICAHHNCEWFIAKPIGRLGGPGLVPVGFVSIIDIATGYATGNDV
Chain of Sho1, P40073 (P40073 287-367): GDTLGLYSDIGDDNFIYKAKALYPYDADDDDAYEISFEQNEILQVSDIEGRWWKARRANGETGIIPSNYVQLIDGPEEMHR

QQEQNTPPLPPKPKS
SPOT intensity (Bzz1-2, P38822): 3
SPOT intensity (Pin3, Q06449): 0
SPOT intensity (Sla1-3, P32790): 3
SPOT intensity (GST): 0
SPOT intensity (Bud14, P27637): 0
SPOT intensity (Cyk3, Q07533): 0
SPOT intensity (Lsb4, P32793): 776
SPOT intensity (Myo5, Q04439): 0
SPOT intensity (Sla1-2, P32790): 1
SPOT intensity (Bem1-1, P29366): 1
SPOT intensity (Myo3, P36006): 0
SPOT intensity (Bbc1, P47068): 0
SPOT intensity (Sho1, P40073): 14
SPOT intensity (Abp1, P15891): 3
SPOT intensity (Hof1, Q05080): 950
SPOT intensity (Bem1-2, P29366): 1
SPOT intensity (Fus1, P11710): 0
SPOT intensity (Lsb3, P43603): 923
SPOT intensity (Pex13, P80667): 79
SPOT intensity (Boi1, P38041): 0
SPOT intensity (Rvs167, P39743): 0
SPOT intensity (Bzz1-1, P38822): 0
SPOT intensity (Cdc25, P04821): 0
SPOT intensity (Lsb1, P53281): 0
SPOT intensity (Boi2, P39969): 0
SPOT intensity (Nbp2, Q12163): 0
SPOT intensity (Hse1, P38753): 184

APERAVPILPPRNNV
SPOT intensity (Bzz1-2, P38822): 0
SPOT intensity (Pin3, Q06449): 13
SPOT intensity (Sla1-3, P32790): 0
SPOT intensity (GST): 0
SPOT intensity (Bud14, P27637): 0
SPOT intensity (Cyk3, Q07533): 0
SPOT intensity (Lsb4, P32793): 1220
SPOT intensity (Myo5, Q04439): 0
SPOT intensity (Sla1-2, P32790): 0
SPOT intensity (Bem1-1, P29366): 1
SPOT intensity (Myo3, P36006): 66
SPOT intensity (Bbc1, P47068): 13
SPOT intensity (Sho1, P40073): 7
SPOT intensity (Abp1, P15891): 4
SPOT intensity (Hof1, Q05080): 63
SPOT intensity (Bem1-2, P29366): 2
SPOT intensity (Fus1, P11710): 0
SPOT intensity (Lsb3, P43603): 771
SPOT intensity (Pex13, P80667): 536
SPOT intensity (Boi1, P38041): 0
SPOT intensity (Rvs167, P39743): 1340
SPOT intensity (Bzz1-1, P38822): 1
SPOT intensity (Cdc25, P04821): 1
SPOT intensity (Lsb1, P53281): 290
SPOT intensity (Boi2, P39969): 1
SPOT intensity (Nbp2, Q12163): 0
SPOT intensity (Hse1, P38753): 1

SSAAPPPPPRRATPE
SPOT intensity (Bzz1-2, P38822): 1
SPOT intensity (Pin3, Q06449): 5
SPOT intensity (Sla1-3, P32790): 0
SPOT intensity (GST): 1
SPOT intensity (Bud14, P27637): 0
SPOT intensity (Cyk3, Q07533): 0
SPOT intensity (Lsb4, P32793): 965
SPOT intensity (Myo5, Q04439): 18
SPOT intensity (Sla1-2, P32790): 0
SPOT intensity (Bem1-1, P29366): 1
SPOT intensity (Myo3, P36006): 99
SPOT intensity (Bbc1, P47068): 8
SPOT intensity (Sho1, P40073): 3
SPOT intensity (Abp1, P15891): 23
SPOT intensity (Hof1, Q05080): 1
SPOT intensity (Bem1-2, P29366): 1
SPOT intensity (Fus1, P11710): 0
SPOT intensity (Lsb3, P43603): 706
SPOT intensity (Pex13, P80667): 58
SPOT intensity (Boi1, P38041): 1
SPOT intensity (Rvs167, P39743): 1790
SPOT intensity (Bzz1-1, P38822): 0
SPOT intensity (Cdc25, P04821): 2
SPOT intensity (Lsb1, P53281): 266
SPOT intensity (Boi2, P39969): 0
SPOT intensity (Nbp2, Q12163): 0
SPOT intensity (Hse1, P38753): 0
